The values below come from patent US11584938B2, “Plant EPSPS mutant containing L195P and S247G mutations and encoding gene and use thereof” (GEVOTO LLC, priority 2017, dated 2023).

The experiment concerns transgenic rice plants. Briefly: glyphosate resistance of the EPSPS mutant in transgenic rice plants sprayed with Roundup 41% ammonium glyphosate. Format: in vivo, rice (Nipponbare). The source says:
A method for detecting the glyphosate resistance of G1 (SEQ ID NO: 4) provided in Example 1, G3 (SEQ ID NO: 8) provided in Example 2, G4 (SEQ ID NO: 10) provided in Example 3, the soybean EPSPS mutant G5 (SEQ ID NO: 12) provided in Example 4, T1 (SEQ ID NO: 16) provided in Example 5, T3 (SEQ ID NO: 20) provided in Example 6, T4 (SEQ ID NO: 22) provided in Example 7, T5 (SEQ ID NO: 24) provided in Example 8, the wheat EPSPS mutant T6 (SEQ ID NO: 26) provided in Example 9, R1 (SEQ ID NO: 30) provided in Example 10, R3 (SEQ ID NO: 34) provided in Example 11, R4 (SEQ ID NO: 36) provided in Example 12, R5 (SEQ ID NO: 38) provided in Example 13, and the rice EPSPS mutant R6 (SEQ ID NO: 40) provided in Example 14 in the transgenic rice is as follows:
The plasmids (containing the EPSPS mutation gene) of the monoclonal resistant bacteria of pADV5-EPSPS in Examples 1-7 were extracted by a conventional method, followed by double enzyme digestion by Pac1 and BstEII, the small fragments were collected, and then the small fragments were ligated by using T4 DNA ligase, to the pGVP1 vectors that had undergone the same double enzyme digestion, to obtain a pGVP1-EPSPS vector having a structure as shown in FIG. 23.
EHA105 (Agrobacterium tumefaciens) competent cells were transformed by the pGVP1-EPSPS vector, and single colonies were picked up to perform bacterial colony PCR detection to identify positive strains; then the positive strains were inoculated into 1 mL of YEP culture medium containing 50 μg·mL^−1 kanamycin and 50 μg·mL^−1 rifampin to propagate, and then preserved at −80° C., or used for subsequent experiment.
400 μl of bacterium containing the target gene vector preserved at −80° C. was added to a culture dish of solid culture media containing YEP+50 μg/mL rifampin+50 μg/mL kanamycin, and cultured in the dark at 28° C. for 24 hours, then this bacterium was added to an infection culture medium, and this bacterial solution was adjusted to OD=0.2 as an infection liquid.
Sterilization and pre-culturing: mature rice (Nipponbare) seeds were manually shelled, and full seeds without bacterial plaque were selected, and sterilized according to following steps: putting the seeds into a 50 ml sterile centrifuge tube, adding 70% alcohol for disinfection for 30 seconds, pouring out the alcohol, and cleaning the seeds once with sterile water; adding 10-20 ml of 2.6% sodium hypochlorite solution for soaking and sterilizing for 20 minutes, pouring out the sodium hypochlorite solution, and soaking and cleaning the seeds with sterile water for 6-7 times, 3 minutes each time.
Induction and subculturing: the seeds were put on sterile filter paper for drying, and mature embryos were put in an induction culture medium with 12 embryos in each dish; the culture dishes were sealed with a sealing film after the operation was finished, the mature embryos were cultured in the dark at 30° C. for 21-28 days, calluses were transferred into a fresh culture medium, and continuously cultured for about 7-14 days, and spherical calluses with a size of 1-2 mm were taken as infection receptors.
the calluses were inoculated into a centrifuge tube or a culture cup, the prepared Agrobacterium tumefaciens suspension liquid was added for infection for 10 minutes, wherein the calluses were shaken several times; the bacterial solution was poured out, the calluses were taken out, and placed on sterile filter paper to suck out the surface bacterial solution (about 30 minutes); and the calluses were put on sterile filter paper in a culture dish, and cultured in the dark at 25° C. for 2-3 days.
Recovery culturing: the calluses having undergone co-culturing were inoculated in a recovery culture medium, and cultured in the dark at 30° C. for 5-7 days. First round of screening: the calluses were transferred to screening culture media 1 (S1) and cultured in the dark at 30° C. for 14 days. […]

[1] abbreviates: 1× dosage 1060 g/hectare glyphosate sprayed, recorded on 10th day.
Setting [2] is: 2× dosage 2120 g/hectare sprayed to plants surviving 1×, recorded 10 days later.
Setting [3] is: 5× dosage 5300 g/hectare sprayed to plants surviving 2×, recorded 10 days later.
The mark [4] stands for this setting: 20× dosage 21200 g/hectare sprayed to plants surviving 5×, recorded 10 days later.

B1: G0: wild-type soybean EPSPS, amino acid sequence SEQ ID NO: 2; control (protein)
chain: MAAAEKPSTAPEIVLEPIKDISGTITLPGSKSLSNRILLLAALSEGTTVVDNLLYSEDIHYMLGALRTLGLRVEDDQTTKQAIVEGCGGLFPTIKESKDEINLFLGNAGTAMRPLTAAVVAAGGNASYVLDGVPRMRERPIGDLVAGLKQLGADVDCFLGTNCPPVRVNGKGGLPGGKVKLSGSVSSQYLTALLMAAPLALGDVEIEIVDKLISVPYVEMTLKLMERFGVSVEHSGDWDKFLVHGGQKYKSPGNAFVEGDASSASYFLAGAAVTGGTITVNGCGTSSLQGDVKFAEVLEKMGAKVTWSENSVTVTGPPQDSSGQKVLQGIDVNMNKMPDVAMTLAVVALFANGQTTIRDVASWRVKETERMIAICTELRKLGATVEEGPDYCVITPPEKLNVTAIDTYDDHRMAMAFSLAACGDVPVTIKDPGCTRKTFPDYFEVLERFTRH
modifications: Glycine max
notes: control
On to B1, for which, under setting [1], the “%++&+++ (percentage of plant having medium and high glyphosate resistance to the total number of plants observed)” value is on record as 0.0%; the “number of plants denoted by + (low glyphosate resistance)” value (shortened to “number … (low glyphosate resistance)”) is 0; the “number of plants denoted by ++ (medium glyphosate resistance)” value (“number … (medium glyphosate resistance)” below) is 0; the “number of plants denoted by +++ (high glyphosate resistance)” value (“number of plants denoted by +++” for short) was 0. For the same molecule, the “number of plants denoted by − (no glyphosate resistance)” value (from here on “number … (no glyphosate resistance)”) under setting [1] came out at 36. Also, the “glyphosate resistance / survival of the rice transformed by the EPSPS, in words” value (from here on “glyphosate resistance / survival”) (1× glyphosate dosage) was “had no resistance and died”. Further, under setting [2], the “%++&+++ (percentage of plant having medium and high glyphosate resistance to the total number of plants observed)” value was determined as 0.0%; the “number … (low glyphosate resistance)” value was determined as 0; the “number … (medium glyphosate resistance)” value was determined as 0; the “number of plants denoted by +++” value was 0. The “number … (no glyphosate resistance)” value under setting [2] is reported as 36. In addition, under setting [3], the “&++&+++ (percentage of plant having medium and high glyphosate resistance to the total number of plants observed)” value stood at 0.0%; the “number … (low glyphosate resistance)” value is reported as 0; the “number … (medium glyphosate resistance)” value is 0; the “number of plants denoted by +++” value was 0. Moreover, the “number … (no glyphosate resistance)” value under setting [3] was found to be 36. In addition, under setting [4], the “&++&+++ (percentage of plant having medium and high glyphosate resistance to the total number of plants observed)” value worked out at 0.0%; the “number … (low glyphosate resistance)” value was determined as 0; the “number … (medium glyphosate resistance)” value is 0; the “number of plants denoted by +++” value is listed as 0. The “number … (no glyphosate resistance)” value under setting [4] is listed as 36.

B2: G2: soybean EPSPS mutant, SEQ ID NO: 6, merely containing the mutation P114(101)S; control (protein)
chain: MAAAEKPSTAPEIVLEPIKDISGTITLPGSKSLSNRILLLAALSEGTTVVDNLLYSEDIHYMLGALRTLGLRVEDDQTTKQAIVEGCGGLFPTIKESKDEINLFLGNAGTAMRSLTAAVVAAGGNASYVLDGVPRMRERPIGDLVAGLKQLGADVDCFLGTNCPPVRVNGKGGLPGGKVKLSGSVSSQYLTALLMAAPLALGDVEIEIVDKLISVPYVEMTLKLMERFGVSVEHSGDWDKFLVHGGQKYKSPGNAFVEGDASSASYFLAGAAVTGGTITVNGCGTSSLQGDVKFAEVLEKMGAKVTWSENSVTVTGPPQDSSGQKVLQGIDVNMNKMPDVAMTLAVVALFANGQTTIRDVASWRVKETERMIAICTELRKLGATVEEGPDYCVITPPEKLNVTAIDTYDDHRMAMAFSLAACGDVPVTIKDPGCTRKTFPDYFEVLERFTRH
For B2, the “%++&+++ (percentage of plant having medium and high glyphosate resistance to the total number of plants observed)” value is reported as 47.1% under setting [1] and 0.0% under setting [2]. For the same molecule, the “number … (low glyphosate resistance)” value reads like this: under setting [1], 6; under setting [2], 0; under setting [3], 0; under setting [4], 0. Also, the “number … (medium glyphosate resistance)” value reads like this: under setting [1], 5; under setting [2], 0; under setting [3], 0; under setting [4], 0. Also, the “number of plants denoted by +++” value is listed as 3 under setting [1], 0 under setting [2], 0 under setting [3] and 0 under setting [4]. Also, the “number … (no glyphosate resistance)” value worked out at 3 under setting [1], 17 under setting [2], 17 under setting [3] and 17 under setting [4]. Further, the “glyphosate resistance / survival” value runs as follows: (1× glyphosate dosage) “had certain resistance to glyphosate”; (2× glyphosate dosage) “all rice seedlings containing the soybean EPSPS mutant G2 died”; (5× glyphosate dosage) “all rice seedlings containing the soybean EPSPS mutant G2 died”; (20× glyphosate dosage) “all rice seedlings containing the soybean EPSPS mutant G2 died”. For the same molecule, the “&++&+++ (percentage of plant having medium and high glyphosate resistance to the total number of plants observed)” value is, setting by setting: under setting [3], 0.0%; under setting [4], 0.0%.

B3: G1: soybean EPSPS mutant, SEQ ID NO: 4, mutation L212(195)P (protein)
chain: MAAAEKPSTAPEIVLEPIKDISGTITLPGSKSLSNRILLLAALSEGTTVVDNLLYSEDIHYMLGALRTLGLRVEDDQTTKQAIVEGCGGLFPTIKESKDEINLFLGNAGTAMRPLTAAVVAAGGNASYVLDGVPRMRERPIGDLVAGLKQLGADVDCFLGTNCPPVRVNGKGGLPGGKVKLSGSVSSQYLTALLMAAPLALGDVEIEIVDKPISVPYVEMTLKLMERFGVSVEHSGDWDKFLVHGGQKYKSPGNAFVEGDASSASYFLAGAAVTGGTITVNGCGTSSLQGDVKFAEVLEKMGAKVTWSENSVTVTGPPQDSSGQKVLQGIDVNMNKMPDVAMTLAVVALFANGQTTIRDVASWRVKETERMIAICTELRKLGATVEEGPDYCVITPPEKLNVTAIDTYDDHRMAMAFSLAACGDVPVTIKDPGCTRKTFPDYFEVLERFTRH
Regarding B3, under setting [1], the “%++&+++ (percentage of plant having medium and high glyphosate resistance to the total number of plants observed)” value was found to be 16.7%; the “number … (low glyphosate resistance)” value stood at 20; the “number … (medium glyphosate resistance)” value turned out to be 4; the “number of plants denoted by +++” value is listed as 2. In addition, the “number … (no glyphosate resistance)” value under setting [1] was found to be 10. Also, the “glyphosate resistance / survival” value (1× glyphosate dosage) is “obviously superior to that of the rice seedlings transformed by G0”. In addition, under setting [2], the “%++&+++ (percentage of plant having medium and high glyphosate resistance to the total number of plants observed)” value is on record as 0.0%; the “number … (low glyphosate resistance)” value turned out to be 19; the “number … (medium glyphosate resistance)” value was 0; the “number of plants denoted by +++” value is given as 0. In addition, the “number … (no glyphosate resistance)” value under setting [2] came out at 17. Besides, under setting [3], the “&++&+++ (percentage of plant having medium and high glyphosate resistance to the total number of plants observed)” value amounted to 0.0%; the “number … (low glyphosate resistance)” value is on record as 5; the “number … (medium glyphosate resistance)” value is listed as 0; the “number of plants denoted by +++” value is reported as 0. Further, the “number … (no glyphosate resistance)” value under setting [3] was 31. Besides, under setting [4], the “&++&+++ (percentage of plant having medium and high glyphosate resistance to the total number of plants observed)” value turned out to be 0.0%; the “number … (low glyphosate resistance)” value is on record as 0; the “number … (medium glyphosate resistance)” value is 0; the “number of plants denoted by +++” value is 0. Further, the “number … (no glyphosate resistance)” value under setting [4] came out at 36.
